Experimental data taken from publication doi:10.1101/2025.04.03.647111.

How the values were obtained:
[1] = target: HtpG from Synechococcus elongatus PCC 7942 (Synechococcus elongatus PCC 7942); assay: AUC
[2] = target: HtpG from Synechococcus elongatus PCC 7942 (Synechococcus elongatus PCC 7942); assay: SEC

Substance: HtpG from Synechococcus elongatus PCC 7942 (natural protein)
- stoichiometry N [1]: 2
- stoichiometry N [2]: 2
